Laboratory results from article PMC11206678, “Peptide-Alkoxyamine Drugs: An Innovative Approach to Fight Schistosomiasis: “Digging Their Graves with Their Forks”” (Pathogens, 2024).

How the values were obtained:
[1] = Homolysis kinetics of alkoxyamines by EPR (growth of nitroxide); format: physicochemical; conditions: mixture of diastereoisomers; for Homolysis rate constant kd: 0.1 mM alkoxyamine, O2 as alkyl radical scavenger; for Activation energy Ea: by Equation (2) from kd and T, A = 2.4 10^14 s^−1
Experimental: Preparation of alkoxyamines and reference samples. All reagents including anhydrous solvents used for the chemical synthesis were purchased from commercially available sources such as Merck, TCI, and Fluorochem, and were used without further purification. All air and/or water-sensitive reactions were carried out under an argon atmosphere with dry solvents using standard syringe-cannula/septa techniques. Routine monitoring of reactions was performed using Merck Silica gel 60 F254, aluminum-supported TLC plates; spots were visualized using UV light and ethanolic acidic para-anisaldehyde solution or ethanolic phosphomolybdic solution, followed by heating. Purifications by means of column chromatography were performed with Silica gel 60 (230–400 mesh). ^1H, ^13C, and ^19F NMR spectra were obtained in CDCl3, MeOD (with residual H2O), D2O, DMSO-d6, or C6D6 solutions on by using Bruker AC400 (400 MHz) and Bruker AC300 (300 MHz) spectrometers. High-resolution mass spectra (HRMS) have been performed using a SYNAPT G2 HDMS (Waters) mass spectrometer equipped with a pneumatically assisted atmospheric pressure ionization (API) source. The sample was ionized in positive electrospray mode under the following conditions: electrospray voltage: 2.8 kV; port voltage: 20 V; Nebulizing gas flow rate (nitrogen): 100 L/h or in negative electrospray mode under the following conditions: electrospray voltage: −2.27 kV; port voltage: −20 V; Nebulizing gas flow rate (nitrogen): 100 L/h. The mass spectra (MS) were obtained with a time-of-flight (TOF) analyzer. The exact mass measurements were carried out in triplicate with external calibration. Homolysis constants were measured by EPR on an EMX Bruker spectrometer from 10^−4 M samples in tertbutyl benzene or in a mixture of H2O-nPrOH (1:1; v:v).
Kinetic experiments. Kinetics of A1–A7 (Scheme 2) for series L and D are performed by monitoring the growth of nitroxide by Electron Paramagnetic Resonance (X-band EMX Bruker machine) in tert-butylbenzene and a water/n-PrOH (for a good solubility of the alkoxyamine) as solvents and using O2 as alkyl radical scavenger to suppress the back reaction (kc in Scheme 2) as already reported. Homolysis rate constants kd are given by Equation (1) ([nitroxide]∞ = [alkoxyamine]0 = 0.1 mM, see Table S1) and the subsequent activation energies Ea given by Equation (2). (1) lnnitroxide∞−nitroxidet/nitroxide∞=−kd·t, (2) Ea=−RTlnkd/A.

Vero cells = format: cell-based; conditions: 48 h
Experimental: A non-cancer line of Vero cells was used to determine the cytotoxicity of the compound against mammalian cells. They were evaluated at a final DMSO concentration of 0.5%. The culture medium was MEM (Dutscher, Bernolsheim, France) supplemented with 10% fetal bovine serum (Fisher Scientific, Illkirch, France), 1X non-essential amino acids (Fisher Scientific, Illkirch, France), 100 U/mL, 100 µg/mL penicillin/streptomycin (Fisher Scientific, Illkirch, France), and 2 mM L-glutamine (Fisher Scientific, Illkirch, France) at 37 °C in a humidified 5% CO2 atmosphere. Vero cells (100 µL of 10^5 cells/mL per well) were plated in 96-well plates for 24 h then treated with 100 µL of compound dilutions (in duplicate) during 48 h. All molecules were tested from 5 nM to 50 µM. Each well was then examined under the microscope to detect any precipitate formation before the supernatant was removed by flicking the plate. A volume of 100 µL of 0.5 mg/mL in MEM from a stock solution at 5 mg/mL of PBS-dissolved MTT (3-(4,5-dimethylthiazol-2-yl)-2,5-diphenyltetrazolium bromide, Sigma Aldrich/Merck, Darmstadt, Germany) was then added to each well [20].
After incubation for 1 h at 37 °C and 5% CO2 the supernatant was removed and 100 µL of DMSO were added. Plates were gently shaken to dissolve formazan crystals resulting from the MTT reduction by living cells and read at 570 nm with the VICTOR Nivo plate reader (Perkin Elmer, Waltham, MA, USA). CC50 values were determined using GraphPad Prism 7 software (San Diego, CA, USA).

[2] = system: Schistosoma mansoni adult worms; assay: Viability of Schistosoma mansoni adult worms in vitro; format: cell-based, Schistosoma mansoni NMRI strain; conditions: 37 °C
Experimental: Experiments on the viability of Schistosoma mansoni adult worms. In vitro tests were performed on Schistosoma mansoni NMRI strains. This parasite is lab maintained on Biomphalaria glabrata (BRE strain) as intermediate mollusc host and Golden Hamster (Janvier Labs, Le Genest-Saint-Isle, France) as definitive vertebrate host. Methods, for molluscs’ and hamsters’ infection and for parasite recovery, were previously described. Adult worms were recovered by hepatic perfusion technique between 42 and 47 days post hamster exposition to parasite larvae. Worms were carefully collected and disposed in 12-well Falcon® plate containing 2 mL of RPMI 1640 (supplemented with L-glutamine and Hepes 25 mM). The plates containing a minimum of 15 worms by well were then placed in an incubator chamber at 37 °C and 5% CO2. The worms sex ratio was almost balanced in each well. The drug was first dissolved in DMSO (Sigma-Aldrich) to give a 100 mg/mL mother solution. Then the stock solution was complemented with Tween 80 and RPMI to obtain the following final ratio dilution: RPMI 1640/Tween 80/DMSO and 1000/0.95/3.8, v/v/v.
All molecules were tested at a final concentration of 100 µg/mL and 10 µg/mL. A negative control consisted in adding the same RPMI 1640/Tween 80/DMSO solution, but without any drug and a positive control consisted in adding praziquantel. All molecules and control were performed in duplicates of well. The worm viability was checked after 1, 2, 3, 4, 5, 6, 7, 8, 24, 48, and 72 h after adding the molecule.

[3] = Table S1, dose at 100 μg/ml, unit not given in Table S1 (h in Table 2)

CC(ON1C(C)(C)CCCC1(C)C)c1ccc(NC(=O)[C@@H](Cc2ccccc2)NC(=O)[C@H](NC(=O)[C@H](N)Cc2ccccc2)C(C)C)cc1 (stereo partly drawn) [A5D, (2R)-2-((R)-2-amino-3-phenylpropanamido)-3-methyl-N-((2R)-1-oxo-3-phenyl-1-((4-(1-((2,2,6,6-tetramethylpiperidin-1-yl)oxy)ethyl)phenyl)amino)propan-2-yl)butanamide]
Homolysis rate constant kd ([1]; C–ON bond homolysis in t-BuPh, EPR, T (°C): A1L 128.0, A3L 125.0, A5L 130.0, A6L 125, A7L 126.5, A1D 122.5, A3D 119.8, A5D 130): 11.6 10^−4 s^−1
Homolysis rate constant kd ([1]; C–ON bond homolysis in water/n-PrOH v/v 1:1, EPR, T (°C): A1L 95.1, A3L 94.5, A4L 94.6, A5L 94.0, A6L 94.8, A7L 94.3, A1D 93.5, A3D 92.6, A4D 95.0, A5D 94.6): 1.3 10^−4 s^−1
Activation energy Ea ([1]; in t-BuPh): 132.7 kJ/mol
Activation energy Ea ([1]; in water/n-PrOH v/v 1:1): 128.5 kJ/mol
CC50 (Vero cells): 2.2 ± 0.3 µM
time to kill all parasites [2, 3]: 4
time to reach the death of half of the population of worms [2, 3]: 1
Activity/toxicity towards schistosomes (in words) ([2]; adult worms, 100 μg/mL): toxic to schistosomes
